Measurements as given in patent publication US20040072184A1.

Columns and labels:
PKB-sub peptide = biological target: T1, PKB-sub peptide; assay: cell-based or functional assay
T1 sequence (peptide): CKRPRAASFAE

CapK peptide = biological target: T2, CapK peptide; assay: cell-based or functional assay
T2 sequence (peptide): CGRTGRRNSI

kinase activity, PKB sub (CCPM1); GST-SGK2 from Hi5 cells treated with Calyculin A (PKB-sub peptide): 92500 CCPM1 | kinase activity, PKB sub (CCPM1); GST-SGK2 from Hi5 cells treated with Microcysteine (PKB-sub peptide): 217 CCPM1 | kinase activity, PKB sub (CCPM1); GST-SGK2 from Hi5 cells treated with Okadaic Acid (PKB-sub peptide): 132000 CCPM1 | kinase activity, PKB sub (CCPM1); GST-SGK2 from untreated Hi5 cells (PKB-sub peptide): 979 CCPM1 | kinase activity, CapK sub (CCPM1); GST-SGK2 from Hi5 cells treated with Calyculin A (CapK peptide): 59300 CCPM1 | kinase activity, CapK sub (CCPM1); GST-SGK2 from Hi5 cells treated with Microcysteine (CapK peptide): 330 CCPM1 | kinase activity, CapK sub (CCPM1); GST-SGK2 from Hi5 cells treated with Okadaic Acid (CapK peptide): 162000 CCPM1 | kinase activity, CapK sub (CCPM1); GST-SGK2 from untreated Hi5 cells (CapK peptide): 1080 CCPM1
B1: GST-SGK2 fusion protein (enzyme, not shown: a dimerising Fc or GST)
chain: MNSSPAGTPSPQPSRANGNINLGPSANPNAQPTDFDFLKVIGKGNYGKVLLAKRKSDGAFYAVKVLQKKSILKKKEQSHIMAERSVLLKNVRHPFLVGLRYSFQTPEKLYFVLDYVNGGELFFHLQRERRFLEPRARFYAAEVASAIGYLHSLNIIYRDLKPENILLDCQGHVVLTDFGLCKEGVEPEDTTSTFCGTPEYLAPEVLRKEPYDRAVDWWCLGAVLYEMLHGLPPFYSQDVSQMYENILHQPLQIPGGRTVAACDLLQSLLHKDQRQRLGSKADFLEIKNHVFFSPINWDDLYHKRLTPPFNPNVTGPADLKHFDPEFTQEAVSKSIGCTPDTVASSSGASSAFLGFSYAPEDDDILDC
